Changes are numbered by the printed parent chain.

We go through 19 molecules from US9932404B2.

For experiment [1], the target named is full-length murine TLR3 (mouse).
Experiment [2] has as its target human TLR3 extracellular domain (amino acids 1-703) with C-terminal poly-histidine tag (human). The experiment can be described thus: ELISA, coated huTLR3 ECD. For orientation: In an ELISA, binding on a coated surface is turned into a signal by an enzyme label.
Experiment [3] has the same target. Nature of the experiment: Biacore (data not shown). (In general: SPR reads the build-up and loss of mass on a sensor chip optically.)

B1: mAb c1811 (antibody, V domains shown)
VH: EVQLVASGGGLVKPGASLKLSCVASGFTFSDYWMAWVRQTPGKPMEYIGDIKSDGSKVNYAPSLKNRFTISRDNARTTLYLQMSNVRSEDTATYYCNRDIGPDWYFDFWGPGTMVTVSS
VL: DIQMTQSPTSLSASLGETVTIECRASEDIYNGLAWYQQKPGKSPQLLIYDSNSLHTGVPSRFSGRGSGTQYSLRINSLQSEDVASYFCQQYYDYPLTFGSGTKLEIKR
B1 came in with an IC50, poly(I:C)-induced ISRE luciferase reporter in experiment [1] of 0.7 µg/mL.

B2: mAb 1 (antibody, V domains shown)
V domain 1: GVELVQSGAEVKKPGESLKISCKGSGYSFTDNWISWVRQAPGKGLEWMGVIDPSDSYTNYAPSFQGQVTISADKSISTAYLQWSSLKASDTAMYYCAREWGIGGMVDIWG
V domain 2: DIVLTQSPATLSLSPGERATLSCRASQYIDISYLAWYQQKPGQAPRLLIYDASSRATGVPARFSGSGSGTDFTLTISSLEPEDFAVYYCQQYYSLSITFGQGTKVEIK
Take B2: the EC50 (in general, the concentration at which the effect is half-maximal) in experiment [2] is 0.0172 µg/mL. For the same molecule, the dissociation constant (Kd) – broadly, the constant that tells how readily two partners part at equilibrium – in experiment [3] is below 10 nM.

B3: mAb 8 (antibody, V domains shown)
VH: QVELQQSGPGLVKPSQTLSLTCAISGDSVSSNSAAWGWIRQSPGRGLEWLGIIQTRSKWYNDYAVSVKSRITINPDTSKNQFSLQLNSVTPEDTAVYYCARYSYPFYSIDYWGQGTLVTVSS
VL: DIELTQPPSVSVAPGQTARISCSGDNIGSYYVHWYQQKPGQAPVLVIYEDSERPSGIPERFSGSNSGNTATLTISGTQAEDEADYYCQSYDSQFSFGVFGGGTKLTVL
As to B3, in experiment [2], the EC50 was 0.0186 µg/mL. The molecule also came in with a Kd in experiment [3] below 10 nM.

B4: mAb 12 (antibody, V domains shown)
V domain 1: B3 VH with T55K, D62N
V domain 2: B3 VH with Q1D, V2I, T55K, D62N
On to B4, for which the EC50 in experiment [2] was 0.0256 µg/mL. Moreover, the Kd in experiment [3] was below 10 nM.

B5: mAb 18 (antibody, V domains shown)
VH: B3 VH with T55K, D62N
VL: B3 VL
For B5, the EC50 in experiment [2] is 0.00968 µg/mL. This molecule also displayed a Kd in experiment [3] below 10 nM.

B6: mAb 10 (antibody, V domains shown)
VH: B3 VH with T55K, D62N
VL: DIELTQPPSVSVAPGQTARISCSGDNIGSYYVHWYQQKPGQAPVLVIYEDSERPSGIPERFSGSNSGNTATLTISGTQAEDEADYYCQSYDTPVYSVFGGGTKLTVL
B6: in experiment [2], the EC50 was 0.0158 µg/mL. This molecule came in with an equilibrium dissociation constant (Kd) in experiment [3] below 10 nM.

B7: mAb 11 (antibody, V domains shown)
VH: B3 VH with T55K, D62N
VL: B6 VL with Q88S, T92E, V94N, Y95F, S96N
On to B7, for which the EC50 in experiment [2] worked out at 0.0263 µg/mL. In addition, the dissociation constant Kd in experiment [3] is below 10 nM.

B8: mAb 9 (antibody, V domains shown)
VH: B3 VH with T55I, V65L
VL: B3 VL
With B8, in experiment [2], the EC50 was determined as 0.0226 µg/mL. Further, the dissociation constant (Kd) in experiment [3] is below 10 nM.

B9: mAb 4 (antibody, V domains shown)
VH: QVELQQSGPGLVKPSQTLSLTCAISGDSVSTRSAAWGWIRQSPGRGLEWLGKISYRSRWYNDYAVSVKSRITINPDTSKNQFSLQLNSVTPEDTAVYYCARHTYPYLSFDVWGQGTLVTVSS
VL: DIELTQPPSVSVAPGQTARISCSGDALGGYFVSWYQQKPGQAPVLVIYDDDNRPSGIPERFSGSNSGNTATLTISGTQAEDEADYYCASYDGDEFTVFGGGTKLTVL
B9 registered an EC50 in experiment [2] of 0.0128 µg/mL. The molecule further returned a Kd in experiment [3] below 10 nM.

B10: mAb 5 (antibody, V domains shown)
VH: B9 VH with K52R, S54Y, Y55M, R58K
VL: B9 VL with A88Q, G92E, E94S, F95A
Take B10: the half-maximal effective concentration (EC50) in experiment [2] stood at 0.0199 µg/mL. In addition, the Kd in experiment [3] was below 10 nM.

B11: mAb 6 (antibody, V domains shown)
VH: B9 VH with K52R, S54Y, Y55M, R58K
VL: B9 VL with A88G, G92S, D93N, E94S, F95L
Regarding B11, the EC50 in experiment [2] came to 0.019 µg/mL. Moreover, in experiment [3], the equilibrium dissociation constant (Kd) was below 10 nM.

B12: mAb 7 (antibody, V domains shown)
VH: B9 VH with K52R, S54Y, Y55M, R58K
VL: B9 VL with A88S, G92S, E94S, F95L
For B12, the EC50 in experiment [2] turned out to be 0.0161 µg/mL. The same molecule had a Kd in experiment [3] below 10 nM.

B13: mAb 3 (antibody, V domains shown)
VH: B9 VH with K52R, S54H, Y55R, R58K
VL: B9 VL
In turn, B13 displayed an EC50 in experiment [2] of 0.0234 µg/mL. Besides, the Kd in experiment [3] is below 10 nM.

B14: mAb 17 (antibody, V domains shown)
VH: B9 VH with K52R, S54Y, Y55M, R58K
VL: B9 VL
B14 had an EC50 in experiment [2] of 0.0138 µg/mL. This molecule came in with a Kd in experiment [3] below 10 nM.

B15: mAb 16 (antibody, V domains shown)
VH: QVELVQSGAEVKKPGESLKISCKGSGYSFNNYWIGWVRQMPGKGLEWMGIIDPGDSYTNYAPSFQGQVTISADKSISTAYLQWSSLKASDTAMYYCARNIYEFDYWGQGTLVTVSS
VL: DIQMTQSPSSLSASVGDRVTITCRASQGISSWLNWYQQKPGKAPKLLIYGASNLQSGVPSRFSGSGSGTDFTLTISSLQPEDFAVYYCQQYDDFSITFGQGTKVEIK
In experiment [2], B15 displayed an EC50 of 0.0437 µg/mL. Besides, the dissociation constant (Kd) in experiment [3] is below 10 nM.

B16: mAb 2 (antibody, V domains shown)
VH: B15 VH with G54Q, Y57W
VL: B15 VL
In experiment [2], B16 yielded an EC50 of 0.0531 µg/mL. Besides, in experiment [3], the Kd is below 10 nM.

B17: mAb 13 (antibody, V domains shown)
VH: QVELVQSGAEVKKPGESLKISCKGSGYSFTNYWVGWVRQMPGKGLEWMGFIDPSDSYTNYAPSFQGQVTISADKSISTAYLQWSSLKASDTAMYYCARELYQGYMDTFDSWGQGTLVTVSS
VL: DIQMTQSPSSLSASVGDRVTITCRASQSIGLYLAWYQQKPGKAPKLLIYAASSLQSGVPSRFSGSGSGTDFTLTISSLQPEDFATYYCQQGESILSTFGQGTKVEIK
B17: the concentration giving a half-maximal response (EC50) in experiment [2] was 0.0235 µg/mL. The Kd in experiment [3] is below 10 nM.

B18: mAb 14 (antibody, V domains shown)
VH: B17 VH
VL: DIQMTQSPSSLSASVGDRVTITCRASQSIGLYLAWYQQKPGKAPKLLIYAASSLQSGVPSRFSGSGSGTDFTLTISSLQPEDFATYYCQQAETVSPTFGQGTKVEIKR
Regarding B18, the concentration giving a half-maximal response (EC50) in experiment [2] stood at 0.0336 µg/mL. In experiment [3], this molecule showed a Kd below 10 nM.

B19: mAb 19 (antibody, V domains shown)
VH: B17 VH
VL: B17 VL with G91Y, E92G, I94V, L95S, S96I
B19 returned an EC50 in experiment [2] of 0.0665 µg/mL. In experiment [3], the Kd was below 10 nM.
